Results taken from patent US20200291118A1.
Where two headings read alike, the source gives them in different places.

Target: hPD-1-hIgGFc antigen (human), Q15116
Assay: ELISA on coated hPD-1-hIgGFc, ligand PD-L2-his tag 0.3 µg/ml detected; no antibody (row 'blank' under HX009-5)

Chain of hPD-1-hIgGFc antigen (human), Q15116 (Q15116 25-167 limits assumed): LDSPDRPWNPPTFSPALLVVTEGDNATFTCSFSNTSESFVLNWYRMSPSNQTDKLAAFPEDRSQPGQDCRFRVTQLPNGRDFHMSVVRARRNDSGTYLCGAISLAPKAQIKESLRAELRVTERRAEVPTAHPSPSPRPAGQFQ

B1: PD-L2-his tag, Q9BQ51 20-220 (ligand, UniProt Q9BQ51 20-220, looked up, not shown: small tags and cut ends)
chain: LFTVTVPKELYIIEHGSNVTLECNFDTGSHVNLGAITASLQKVENDTSPHRERATLLEEQLPLGKASFHIPQVQVRDEGQYQCIIIYGVAWDYKYLTLKVKASYRKINTHILKVPETDEVELTCQATGYPLAEVSWPNVSVPANTSHSRTPEGLYQVTSVLRLKPPPGRNFSCVFWNTHVRELTLASIDLQSQMEPRTHPT
absorbance at 450 nm: 1.1 | absorbance at 450 nm (remark: other sources report otherwise): 1.09
